According to paper PMC9912922, “The LH–DH module of bacterial replicative helicases is the common binding site for DciA and other helicase loaders” (Acta Crystallographica. Section D, Structural Biology, 2023):

B1: VcDnaB, replicative helicase DnaB from Vibrio cholerae (enzyme)
chain: MADPRTDNRNRKIPDAQVDAIKVPPHSLEAEQSVIGGLLLDNERWDTVSEHVMTQDFYSRPHRLIFDGVKSILEAGKPLDLITLSEYLEQREQLEDVGGFAYLADLAKNTPSAANINAYAEIVAERALVRNLIGVANEIADAGYDPQGRNAEDLLDLAESKVFAIAEARTSENEGPKNVDSILERTLERIELLYKTPQDGVTGVNTGFTDLNKKTAGLQGSDLIIVAARPSMGKTTFAMNLCENAAMEQDKPVLIFSLEMPAEQIMMRMLASLSRVDQTKIRTGQLDDEDWARISSTMGILMEKKNMYIDDSSGLTPTEVRSRARRIAREHGGLSLIMVDYLQLMRVPALTDNRTLEIAEISRSLKALAKELNVPVVALSQLNRSLEQRADKRPVNSDLRESGSIEQDADLIMFIYRDEVYHPDSPLKGTAEIIIGKQRNGPIGSVRLTFQGHYSRFDNYAGPAFDDE
notes: DnaB replicative helicase, Vibrio cholerae; seen as full-length protein without proteolysis on SDS-PAGE of the crystals; NTD 22-175 and CTD 200-461 of PDB 6t66 were the search models
B2: EcDnaC, helicase loader DnaC from Escherichia coli (natural protein)
chain: MKNVGDLMQRLQKMMPAHIKPAFKTGEELLAWQKEQGAIRSAALERENRAMKMQRTFNRSGIRPLHQNCSFENYRVECEGQMNALSKARQYVEEFDGNIASFIFSGKPGTGKNHLAAAICNELLLRGKSVLIITVADIMSAMKDTFRNSGTSEEQLLNDLSNVDLLVIDEIGVQTESKYEKVIINQIVDRRSSSKRPTGMLTNSNMEEMTKLLGERVMDRMRLGNSLWVIFNWDSYRSRVTGKEY
notes: DnaC helicase loader, Escherichia coli; source: overexpressed in E. coli, purified as described in Marsin et al. (2021)

Columns and labels:
[1] = molecular target: the molecule itself; test: crystal structure; VcDnaB (0.115 mM monomer) pre-incubated with 2 mM ADP and 5 mM MgCl2, VcDciA added to 0.138 mM; crystals at 18°C in 0.1 M sodium acetate pH 4.8-5.6, 0.7-0.9 M potassium/sodium tartrate; 2.9 Å
[2] = molecular target: B1; test: intrinsic fluorescence variation along a thermal ramp (Tycho NT.6 nano-DSF); 20 µM of each protein in 50 mM HEPES pH 7.5, 150 mM NaCl, 1 mM ATP; 350/330 nm ratio, 35 to 95°C, compared with the ratio predicted in the absence of interaction; three to five replicates; details: both partners purified

Does B1 bind [1]?
Result: binds

Does B2 bind [2]?
Result: binds
